Results taken from US20200317768A1 (published 2020).
Changes are numbered by the printed parent chain.

Experiments:
Assay in all cases: SPR (BIACORE), antibody captured, FcgR analyte
[1] = target: T1, human FcγRIIaH extracellular domain with C-terminal His-tag (human, UniProt P12318 34-217)
T1 construct: also called human FcgRIIaH; FcγRIIa (type H)
T1 sequence: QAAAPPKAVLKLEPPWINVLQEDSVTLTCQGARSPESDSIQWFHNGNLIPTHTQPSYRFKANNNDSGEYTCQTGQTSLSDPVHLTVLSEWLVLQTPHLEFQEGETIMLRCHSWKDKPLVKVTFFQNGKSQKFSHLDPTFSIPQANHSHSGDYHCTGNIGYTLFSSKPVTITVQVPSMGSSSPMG

[2] = target: T2, cynomolgus monkey FcγRIIIaS extracellular domain with C-terminal His-tag (cynomolgus monkey, UniProt Q8SPW2 21-206 at identity 1.00))
T2 construct: also called cyno FcgRIIIaS; cynoFcγRIIIaS
T2 chain: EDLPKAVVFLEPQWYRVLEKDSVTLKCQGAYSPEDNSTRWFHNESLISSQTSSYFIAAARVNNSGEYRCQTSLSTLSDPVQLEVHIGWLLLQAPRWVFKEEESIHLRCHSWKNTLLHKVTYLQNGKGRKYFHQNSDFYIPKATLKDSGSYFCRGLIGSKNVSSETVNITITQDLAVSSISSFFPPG

[3] = target: T3, cynomolgus monkey FcγRIIa1 extracellular domain with C-terminal His-tag (cynomolgus monkey)
T3 construct: also called cyno FcgRIIa1; cynoFcγRIIa1
T3 chain: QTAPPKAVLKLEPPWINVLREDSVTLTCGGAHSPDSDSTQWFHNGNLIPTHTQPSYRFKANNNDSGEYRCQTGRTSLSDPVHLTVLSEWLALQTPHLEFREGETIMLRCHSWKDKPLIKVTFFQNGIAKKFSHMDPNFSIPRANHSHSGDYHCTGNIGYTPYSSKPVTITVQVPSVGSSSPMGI

[4] = target: T4, human FcγRIIIaV extracellular domain with C-terminal His-tag (human, UniProt P08637 17-208)
T4 construct: also called human FcgRIIIaV
T4 sequence (P08637 17-208 F176V): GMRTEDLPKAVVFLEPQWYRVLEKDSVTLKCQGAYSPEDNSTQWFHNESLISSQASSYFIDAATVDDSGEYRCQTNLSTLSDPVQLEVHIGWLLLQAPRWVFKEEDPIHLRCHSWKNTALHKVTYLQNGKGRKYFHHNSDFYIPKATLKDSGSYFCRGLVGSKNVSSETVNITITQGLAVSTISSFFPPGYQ

[5] = target: T5, cynomolgus monkey FcγRIIa2 extracellular domain with C-terminal His-tag (cynomolgus monkey)
T5 construct: also called cyno FcgRIIa2; cynoFcγRIIa2
T5 chain: T3 chain with P95T, T121A, I127K, A128S, K130N, D135N, R142Q

[6] = target: T6, human FcγRIIaR extracellular domain with C-terminal His-tag (human, UniProt P12318 34-217)
T6 construct: also called human FcgRIIaR; FcγRIIa (type R)
T6 chain: T1 sequence with H134R

[7] = target: T7, human FcγRIIb extracellular domain with C-terminal His-tag (human, UniProt P31994 43-217)
T7 construct: also called human FcgRIIb
T7 sequence: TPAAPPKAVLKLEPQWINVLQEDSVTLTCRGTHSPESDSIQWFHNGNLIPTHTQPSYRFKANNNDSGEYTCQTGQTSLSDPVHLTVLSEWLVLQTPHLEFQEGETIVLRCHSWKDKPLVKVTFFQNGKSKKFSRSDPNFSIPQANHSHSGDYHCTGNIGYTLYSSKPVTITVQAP

[8] = target: T8, cynomolgus monkey FcγRIIb extracellular domain with C-terminal His-tag (cynomolgus monkey)
T8 construct: also called cyno FcgRIIb; cynoFcγRIIb
T8 chain: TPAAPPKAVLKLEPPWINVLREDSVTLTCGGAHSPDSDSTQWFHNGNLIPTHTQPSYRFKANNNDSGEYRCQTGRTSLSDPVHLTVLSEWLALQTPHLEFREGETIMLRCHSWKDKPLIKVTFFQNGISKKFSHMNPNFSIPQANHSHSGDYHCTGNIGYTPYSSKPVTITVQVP

B1: MS_M103205H795-SG1/M103202L889-SK1 (antibody, human IgG1, kappa)
heavy: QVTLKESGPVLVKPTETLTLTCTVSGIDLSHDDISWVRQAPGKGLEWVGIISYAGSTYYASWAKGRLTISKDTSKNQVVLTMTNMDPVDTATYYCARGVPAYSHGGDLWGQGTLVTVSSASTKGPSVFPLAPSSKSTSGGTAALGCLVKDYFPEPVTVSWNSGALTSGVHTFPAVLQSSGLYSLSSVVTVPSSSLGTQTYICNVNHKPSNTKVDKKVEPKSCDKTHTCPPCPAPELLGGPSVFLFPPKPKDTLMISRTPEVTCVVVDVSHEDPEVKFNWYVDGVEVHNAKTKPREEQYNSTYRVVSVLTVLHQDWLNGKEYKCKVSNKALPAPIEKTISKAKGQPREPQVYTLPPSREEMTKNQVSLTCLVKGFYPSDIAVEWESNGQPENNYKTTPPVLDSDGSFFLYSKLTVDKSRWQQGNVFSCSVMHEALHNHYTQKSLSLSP
light: DIVMTQSPATLSLSPGERATLSCTSSQSVYHANWLSWFQQKPGQPPKLLIYWASTLAYGVPSRFSGSGSGTDFTLTISSLQPEDAATYYCAGGYGGGRYAFGQGTKVEIKRTVAAPSVFIFPPSDEQLKSGTASVVCLLNNFYPREAKVQWKVDNALQSGNSQESVTEQDSKDSTYSLSSTLTLSKADYEKHKVYACEVTHQGLSSPVTKSFNRGEC
notes: Parent antibody of the Fc variants; also called MS1032LO06-SG1
B1 showed a Kd [1] of 690 nM, a Kd [2] of 360 nM and a Kd [3] of 3200 nM. For the same binder, the Kd [4] was 810 nM, the Kd [5] was 5100 nM and the Kd [6] was 1100 nM. It also gave a Kd [7] of 4600 nM and a Kd [8] of 1800 nM.
